According to article PMC10309188:

Columns and labels:
Assay in all cases: SPR
[1] = molecular target: wildtype MR1 refolded with 6-FP, biotinylated (SPR) (UniProt Q95460)
[2] = molecular target: MR1 E76Q E149Q refolded with 6-FP, biotinylated (SPR) (UniProt Q95460)
[3] = molecular target: wildtype MR1 refolded with 5-F-SA, biotinylated (SPR) (UniProt Q95460)
[4] = molecular target: MR1 E76Q E149Q refolded with 5-FSA, biotinylated (SPR) (UniProt Q95460)

Measured: Kd

AF-7 TCR
> 150 µM: all assays above
